Source: US7407671B2, “Temperature controlled solute delivery system” (Boston Scientific Scimed, Inc., priority 1998, dated 2008)

Test: Solute release from bonded HPC gel membranes (modified HPLC system)
Type: physicochemical
Experimental: Solute release tests were conducted in the same manner as for PNIPA gels, as described in Example 1. The solute release experiments were designed to model the actual conditions of catheter use, which entail therapeutic solute loading at room temperature (25° C.), insertion of the catheter into the patient at 37° C., and temperature induced enhanced solute release when the catheter is placed at a target location in the body. While the experimental design was generally successful in modeling the actual use of catheter, heat lost to the experimental apparatus tubing reduced the 37° C. test temperature to 33° C. Because the transition temperature of HPC is fairly sharp (in this case, 43° C.), the reduction of test temperature from 37° C. to 33° C. had little impact on the test results.
Solute release experiments were conducted under four constant temperature conditions and three step change conditions. […] Thus, test temperatures below and above the transition temperature of HPC (43° C.) were used. […]

B1: ovalbumin: ovalbumin (M.w. 45,000 Da), model protein for bioactive proteins such as urokinase (protein, UniProt P01012 2-386, looked up)
Ovalbumin: GSIGAASMEFCFDVFKELKVHHANENIFYCPIAIMSALAMVYLGAKDSTRTQINKVVRFDKLPGFGDSIEAQCGTSVNVHSSLRDILNQITKPNDVYSFSLASRLYAEERYPILPEYLQCVKELYRGGLEPINFQTAADQARELINSWVESQTNGIIRNVLQPSSVDSQTAMVLVNAIVFKGLWEKAFKDEDTQAMPFRVTEQESKPVQMMYQIGLFRVASMASEKMKILELPFASGTMSMLVLLPDEVSGLEQLESIINFEKLTEWTSSNVMEERKIKVYLPRMKMEEKYNLTSVLMAMGITDVFSSSANLSGISSAESLKISQAVHAAHAEINEAGREVVGSAEAGVDAASVSEEFRADHPFLFCIKHIATNAVLFFGRCVSP
HPC gel membrane 0.66 mm, first two minutes at 24° C.
  solute released before the temperature change: 11%
HPC gel membrane 0.66 mm, isothermal 24° C.
  solute released within the first 7 minutes of the test: about 30%
HPC gel membrane 0.66 mm, step 24° C. to 46° C.
  solute released in the five minutes immediately after the temperature change: 54%
HPC gel membrane 0.66 mm, step 24° C. to 46° C. after about two minutes
  solute released within the first 7 minutes of the test: about 65%
Triggered release from HPC gel
  ratio of the area of the convective pulse to the area of the isothermal release curve: much greater for ovalbumin than for methyl orange or estradiol
